The text below walks through data of PMC6763431, “Methionine in a protein hydrophobic core drives tight interactions required for assembly of spider silk” (Nature Communications, 2019).

Data set [1] addresses T1, wild-type N-terminal domain of major ampullate spidroin 1 (MaSp1) from Euprosthenops australis (Euprosthenops australis), Q05H60.
T1 chain: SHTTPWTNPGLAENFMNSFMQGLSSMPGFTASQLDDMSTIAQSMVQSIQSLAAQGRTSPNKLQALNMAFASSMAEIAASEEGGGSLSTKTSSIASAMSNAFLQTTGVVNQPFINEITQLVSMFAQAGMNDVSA
As to the kind of experiment: SEC-MALS; 20 mM MES, pH 6.0, ionic strength 60 mM (KCl), dimer conditions; µM sample concentration; dimer to monomers. As to conditions: remark: other sources report otherwise.

For data set [2], the target named is T2, AttoOxa11-modified L6-NTD mutant Q50C (Euprosthenops australis, AttoOxa11 (maleimide derivative) on the thiol of the engineered cysteine at position 50).
T2 chain: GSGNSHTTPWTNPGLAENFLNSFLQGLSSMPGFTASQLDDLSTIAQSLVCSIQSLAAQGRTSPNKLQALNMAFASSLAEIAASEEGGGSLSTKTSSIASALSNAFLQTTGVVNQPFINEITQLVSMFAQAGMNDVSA
As to the kind of experiment: MST; 40 nM AttoOxa11-modified L6-NTD Q50C with increasing concentrations of unlabelled L6-NTD, standard untreated capillaries, 50% heating power; bimolecular binding isotherm (pseudo-dimerization). The note with it: both partners purified.

Data set [3] concerns the molecule itself. As to the kind of experiment: SEC; high-resolution SEC with Trp fluorescence detection, Superdex-75 Increase 10/300, 0.8 ml/min, 20 mM MES, pH 6.0, ionic strength 20 mM (KCl); elution volume against protein concentration fitted to a monomer/dimer equilibrium; dimer to monomers. On the technique in general: SEC sorts molecules by how far they enter the pores of the column.

B1: wild-type N-terminal domain of major ampullate spidroin 1 (MaSp1) from Euprosthenops australis, Q05H60 24-156 (domain or fragment)
chain: SHTTPWTNPGLAENFMNSFMQGLSSMPGFTASQLDDMSTIAQSMVQSIQSLAAQGRTSPNKLQALNMAFASSMAEIAASEEGGGSLSTKTSSIASAMSNAFLQTTGVVNQPFINEITQLVSMFAQAGMNDVSA
By stoichiometry N is commonly meant a count of units in the complex or per binding partner. Regarding B1, the stoichiometry N in data set [1] came to 2.

B2: L6-NTD (MaSp1 NTD from E. australis with all six core Met mutated to Leu) (domain or fragment)
chain: GSGNSHTTPWTNPGLAENFLNSFLQGLSSMPGFTASQLDDLSTIAQSLVQSIQSLAAQGRTSPNKLQALNMAFASSLAEIAASEEGGGSLSTKTSSIASALSNAFLQTTGVVNQPFINEITQLVSMFAQAGMNDVSA
What is called Kd is the equilibrium constant for the complex coming apart. Lower therefore signals a tighter complex. As to B2, the Kd in data set [2] was 3600 ± 1800 nM; in data set [3] it was 1100 nM.
